{
  "source": "patent US20080279865A1",
  "about": "“Therapy of Prostate Cancer With Ctla-4 Antibodies and Hormonal Therapy” (Pfizer, Inc., Pfizer Products, Inc., priority 2005, published 2008)",
  "key": {"[1]": {"experiment": "Single agent studies of ticilimumab in melanoma (diarrhea)", "format": "in vivo, human", "source_text": "In contrast, in the present study, 2 out of 3 patients treated with the combination of hormonal therapy and CTLA4 blockade had grade 3 diarrhea. […] Diarrhea is considered to be pharmacologically mediated in that it is likely related to the mechanism of action of ticilimumab. […] A possible correlation between tumor response in melanoma and putative “autoimmune breakthrough events” has been reported for single agent CTLA4 blockade in the absence of any other therapy (see Attia et al., J Clin Oncol. 23(25):6043-6053 (2005))."}, "[2]": {"tested_on": "prostate cancer", "experiment": "Neoadjuvant ticilimumab plus leuprolide and bicalutamide before prostatectomy in high risk prostate cancer", "format": "in vivo, human", "source_text": "Patients with prostate cancer who are eligible for radical prostatectomy and who have an intermediate or high risk of recurrence according to current medical standards are candidates for antibody-hormonal combination neoadjuvant therapy. The target population for this study is defined using the risk of biochemical recurrence instead of the probability of pathologically confined cancer. This approach is supported by the observation that patients with disease confined to the prostate may have a biochemical recurrence despite “definitive” local treatment. Therefore, this patient definition is more comprehensive. Considering recent data showing that a time to PSA failure of less than 2 years predicts for distant failure, patients who are at high risk for early PSA failure are candidates for neoadjuvant (and adjuvant) antibody-hormonal combination therapy as disclosed herein.\nPre-operatively, approximately after the end of the last cycle of antibody-hormone combination therapy and prior to scheduled prostatectomy, the following evaluations are completed: any adverse events, ECOG PS, vital signs and weight, physical examination (including signs of autoimmunity), ECG, and DRE. Samples for hematology and chemistry panels, along with PT, APTT, CRP and PSA are obtained.\nPost-operative assessments are performed approximately two weeks following surgery. The evaluation includes physical examination (including autoimmunity), vital signs, ECOG performance status, body weight, hematology, and chemistry panels, PT, APTT, TSH, T3, T4, amylase, lipase, CRP, urinalysis. Additional samples are obtained for autoantibody panel, PSA, testosterone, HAH titer and PK. All patients are assessed for pathological assessment of the surgical specimen and adverse events.\nThe patient is premedicated with antihistamine (H1) at least one half hour prior to infusion of anti-CTLA4, but premedication is not required. Patients were administered leuprolide (LUPRON) and bicalutamide (CASODEX) in combination with an anti-CTLA4 antibody (ticilimumab). More specifically, on day 1 (D1), the patient was administered a single IV infusion (100 mL/hr) of anti-CTLA4 antibody at a dose of 1 mg/kg, 3 mg/kg, or 6 mg/kg, in combination with a 7.5 mg IM injection of leuprolide (LUPRON DEPOT). A minimum of 3 patients were administered each antibody dose. The study was amended to reinitiate dose escalation at a lower dose level, i.e., 1 mg/kg. Three patients received that dose level, and are undergoing surgery (after 3 months of combination therapy). Dose escalation continued to 3 mg/kg. Dose escalation is ongoing at 6 mg/kg and 10 mg/kg.\nBicalutamide (CASODEX) was administered orally, in tablet form, at a dose of 50 mg, once per day for the first fourteen days commencing on day 1 (D1). Preferably, bicalutamide was taken at the same time each day on days D1-D14, and a patient medication diary was used to record any interruption of bicalutamide dosing.\nProphylactic anti-emetics and anti-diarrheals were given as appropriate. The treatment was repeated after 28 days with a […] of antibody and 7.5 mg IM injection of LUPRON DEPOT for a maximum of three cycles (D1, D28, and D56) preceding surgery."}},
  "data": [
    {"substance": "ticilimumab: human IgG2 anti-CTLA4 antibody; heavy chain SEQ ID NO:26, light chain SEQ ID NO:32", "values": [
      {"measurement": "patients with diarrhea", "setting": "[1]; multiple doses of 6 mg/kg", "result": "none"},
      {"measurement": "patients with diarrhea grade 3", "setting": "[1]; single dose of 6 mg/kg", "result": "1 out of three"},
      {"measurement": "diarrhea in a patient", "setting": "[2]; 3 mg/kg ticilimumab and hormonal therapy", "result": "prolonged diarrhea"},
      {"measurement": "prostatectomy specimen findings", "setting": "[2]; 6 mg/kg, patient 1005-1004, after three months of antibody therapy and hormonal therapy (leuprolide and bicalutamide), FIG. 4", "result": "detectable tumor regression and signs of an inflammatory infiltrate around tumor cells"},
      {"measurement": "patients who experienced diarrhea and did not complete the study", "setting": "[2]; cohort of three patients at 6 mg/kg with hormonal therapy", "result": "two"},
      {"measurement": "severity (duration and magnitude) of the diarrhea versus any other study at any dose level", "setting": "[2]; combination of hormonal therapy and CTLA4 blockade", "result": "significantly higher"},
      {"measurement": "patients with grade 3 diarrhea", "setting": "[2]; combination of hormonal therapy and CTLA4 blockade, cohort of three patients at 6 mg/kg", "result": "2 out of 3"},
      {"measurement": "treatment effect in prostatectomy specimens", "setting": "[2]; several patients treated with 1 mg/kg and 6 mg/kg, with androgen blockade", "result": "regression of carcinoma and benign prostate glandular tissue, lymphocytic infiltrates (see FIG. 4), and signs of acute and chronic inflammation"}
    ]}
  ]
}
